According to patent publication US10800813 (Bicycle, dated 2020):
Numbered stars: 1 amine (or outer) side, 2 acyl side, 3 side chain; on linkers, the order of the positions; unused ones are H or OH. Bridge positions count the residues as written; N and C are the ends. Square brackets hold non-standard residues; d marks the D form. Ends that are not written are not given here. Phe(4-guanidino) = N=C(N)Nc1ccc(C[C@H](N)C(=O)O)cc1; TBMB = c1c(C[*:1])cc(C[*:3])cc1C[*:2]; NMeR = CN[C@@H](CCCNC(=N)N)C(=O)O; hArg = N=C(N)NCCCC[C@H](N)C(=O)O; β3hR = N=C(N)NCCC[C@H](N)CC(=O)O; Cit = NC(=O)NCCC[C@H](N)C(=O)O; Agb = N=C(N)NCC[C@H](N)C(=O)O; Agp = N=C(N)NC[C@H](N)C(=O)O; NMeC = CN[C@@H](CS)C(=O)O; NMeA = CN[C@@H](C)C(=O)O; Aze = O=C(O)[C@@H]1CCN1

The binders below were run against T1, human plasma Kallikrein (human, UniProt P03952 20-638, limits assumed) (assay: enzyme inhibition assay).
T1 construct: also called hPK; human PK
T1 sequence (P03952 20-638 limits assumed): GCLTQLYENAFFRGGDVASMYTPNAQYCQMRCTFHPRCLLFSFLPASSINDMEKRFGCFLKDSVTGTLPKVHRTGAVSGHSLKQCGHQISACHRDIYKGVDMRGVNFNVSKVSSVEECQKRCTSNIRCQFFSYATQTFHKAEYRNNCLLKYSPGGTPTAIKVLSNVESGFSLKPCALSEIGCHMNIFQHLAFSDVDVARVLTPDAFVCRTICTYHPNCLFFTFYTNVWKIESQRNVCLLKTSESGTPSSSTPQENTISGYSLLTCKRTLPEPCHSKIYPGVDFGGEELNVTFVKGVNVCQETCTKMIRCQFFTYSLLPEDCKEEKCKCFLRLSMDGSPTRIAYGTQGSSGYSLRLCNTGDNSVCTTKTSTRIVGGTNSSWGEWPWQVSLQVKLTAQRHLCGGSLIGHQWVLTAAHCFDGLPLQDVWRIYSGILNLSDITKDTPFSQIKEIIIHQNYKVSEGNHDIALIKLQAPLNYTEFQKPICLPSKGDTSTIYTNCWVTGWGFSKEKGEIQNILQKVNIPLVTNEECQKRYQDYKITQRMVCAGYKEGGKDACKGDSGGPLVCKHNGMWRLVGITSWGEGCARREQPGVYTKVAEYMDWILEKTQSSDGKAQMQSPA

Binder | Ki [nM]
Ac-CSF[Aze]Y[hArg]CLHQDLC-NH2 (linker 1-7-13 via TBMB) [Ac-(06-34-18) Phe2 Aze3 Tyr4 HomoArg5] | 0.12
Ac-CSF[Aze]Y[NMeR]CLHQDLC-NH2 (linker 1-7-13 via TBMB; SMILES CC(=O)N[C@H]1CSCc2cc3cc(c2)CSC[C@H](NC(=O)[C@H](CCCNC(=N)N)N(C)C(=O)[C@H](Cc2ccc(O)cc2)NC(=O)[C@@H]2CCN2C(=O)[C@H](Cc2ccccc2)NC(=O)[C@H](CO)NC1=O)C(=O)N[C@@H](CC(C)C)C(=O)N[C@@H](Cc1c[nH]cn1)C(=O)N[C@@H](CCC(N)=O)C(=O)N[C@@H](CC(=O)O)C(=O)N[C@@H](CC(C)C)C(=O)N[C@H](C(N)=O)CSC3) [Ac-(06-34-18) Phe2 Aze3Tyr4 NMeArg5] | 0.97
Ac-CSF[Aze]Y[Phe(4-guanidino)]CLHQDLC-NH2 (linker 1-7-13 via TBMB) [Ac-(06-34-18) Phe2 Aze3Tyr4 4GuanPhe5] | 0.36

Target: T1, human plasma Kallikrein
Assay: enzyme inhibition assay
Remark: another data set of the same source

Binder | Ki [nM]
Ac-CSW[dP]ARCLHQDLC-NH2 (linker 1-7-13 via TBMB; SMILES CC(=O)N[C@H]1CSCc2cc3cc(c2)CSC[C@H](NC(=O)[C@H](CCCNC(=N)N)NC(=O)[C@H](C)NC(=O)[C@H]2CCCN2C(=O)[C@H](Cc2c[nH]c4ccccc24)NC(=O)[C@H](CO)NC1=O)C(=O)N[C@@H](CC(C)C)C(=O)N[C@@H](Cc1c[nH]cn1)C(=O)N[C@@H](CCC(N)=O)C(=O)N[C@@H](CC(=O)O)C(=O)N[C@@H](CC(C)C)C(=O)N[C@H](C(N)=O)CSC3) [Ac-(06-34-18) D-Pro3] | 680
Ac-CS[dW]PARCLHQDLC-NH2 (linker 1-7-13 via TBMB; SMILES CC(=O)N[C@H]1CSCc2cc3cc(c2)CSC[C@H](NC(=O)[C@H](CCCNC(=N)N)NC(=O)[C@H](C)NC(=O)[C@@H]2CCCN2C(=O)[C@@H](Cc2c[nH]c4ccccc24)NC(=O)[C@H](CO)NC1=O)C(=O)N[C@@H](CC(C)C)C(=O)N[C@@H](Cc1c[nH]cn1)C(=O)N[C@@H](CCC(N)=O)C(=O)N[C@@H](CC(=O)O)C(=O)N[C@@H](CC(C)C)C(=O)N[C@H](C(N)=O)CSC3) [Ac-(06-34-18) D-Trp2] | 7560
Ac-CSWPAR[dC]LHQDLC-NH2 (linker 1-7-13 via TBMB; SMILES CC(=O)N[C@H]1CSCc2cc3cc(c2)CSC[C@@H](NC(=O)[C@H](CCCNC(=N)N)NC(=O)[C@H](C)NC(=O)[C@@H]2CCCN2C(=O)[C@H](Cc2c[nH]c4ccccc24)NC(=O)[C@H](CO)NC1=O)C(=O)N[C@@H](CC(C)C)C(=O)N[C@@H](Cc1c[nH]cn1)C(=O)N[C@@H](CCC(N)=O)C(=O)N[C@@H](CC(=O)O)C(=O)N[C@@H](CC(C)C)C(=O)N[C@H](C(N)=O)CSC3) [Ac-(06-34-18) D-Cys2] | 234
Ac-CSWPA[dR]CLHQDLC-NH2 (linker 1-7-13 via TBMB; SMILES CC(=O)N[C@H]1CSCc2cc3cc(c2)CSC[C@H](NC(=O)[C@@H](CCCNC(=N)N)NC(=O)[C@H](C)NC(=O)[C@@H]2CCCN2C(=O)[C@H](Cc2c[nH]c4ccccc24)NC(=O)[C@H](CO)NC1=O)C(=O)N[C@@H](CC(C)C)C(=O)N[C@@H](Cc1c[nH]cn1)C(=O)N[C@@H](CCC(N)=O)C(=O)N[C@@H](CC(=O)O)C(=O)N[C@@H](CC(C)C)C(=O)N[C@H](C(N)=O)CSC3) [Ac-(06-34-18) D-Arg5] | 52
Ac-CSWP[dA]RCLHQDLC-NH2 (linker 1-7-13 via TBMB; SMILES CC(=O)N[C@H]1CSCc2cc3cc(c2)CSC[C@H](NC(=O)[C@H](CCCNC(=N)N)NC(=O)[C@@H](C)NC(=O)[C@@H]2CCCN2C(=O)[C@H](Cc2c[nH]c4ccccc24)NC(=O)[C@H](CO)NC1=O)C(=O)N[C@@H](CC(C)C)C(=O)N[C@@H](Cc1c[nH]cn1)C(=O)N[C@@H](CCC(N)=O)C(=O)N[C@@H](CC(=O)O)C(=O)N[C@@H](CC(C)C)C(=O)N[C@H](C(N)=O)CSC3) [Ac-(06-34-18) D-Ala4] | 1200

Target: T1, human plasma Kallikrein
Assay: enzyme inhibition assay
Remark: another data set of the same source

Binder | fold loss in potency against Ac-06-34-18(TMB)-NH2 [fold] | fold reduction of affinity against Ac-06-34-18(TMB)-NH2 [fold]
Ac-CS[dW]PARCLHQDLC-NH2 (linker 1-7-13 via TBMB; SMILES CC(=O)N[C@H]1CSCc2cc3cc(c2)CSC[C@H](NC(=O)[C@H](CCCNC(=N)N)NC(=O)[C@H](C)NC(=O)[C@@H]2CCCN2C(=O)[C@@H](Cc2c[nH]c4ccccc24)NC(=O)[C@H](CO)NC1=O)C(=O)N[C@@H](CC(C)C)C(=O)N[C@@H](Cc1c[nH]cn1)C(=O)N[C@@H](CCC(N)=O)C(=O)N[C@@H](CC(=O)O)C(=O)N[C@@H](CC(C)C)C(=O)N[C@H](C(N)=O)CSC3) [Ac-(06-34-18) D-Trp2] | 45000 | 
Ac-CSWPA[dR]CLHQDLC-NH2 (linker 1-7-13 via TBMB; SMILES CC(=O)N[C@H]1CSCc2cc3cc(c2)CSC[C@H](NC(=O)[C@@H](CCCNC(=N)N)NC(=O)[C@H](C)NC(=O)[C@@H]2CCCN2C(=O)[C@H](Cc2c[nH]c4ccccc24)NC(=O)[C@H](CO)NC1=O)C(=O)N[C@@H](CC(C)C)C(=O)N[C@@H](Cc1c[nH]cn1)C(=O)N[C@@H](CCC(N)=O)C(=O)N[C@@H](CC(=O)O)C(=O)N[C@@H](CC(C)C)C(=O)N[C@H](C(N)=O)CSC3) [Ac-(06-34-18) D-Arg5] | 300 | 
Ac-CSWP[dA]RCLHQDLC-NH2 (linker 1-7-13 via TBMB; SMILES CC(=O)N[C@H]1CSCc2cc3cc(c2)CSC[C@H](NC(=O)[C@H](CCCNC(=N)N)NC(=O)[C@@H](C)NC(=O)[C@@H]2CCCN2C(=O)[C@H](Cc2c[nH]c4ccccc24)NC(=O)[C@H](CO)NC1=O)C(=O)N[C@@H](CC(C)C)C(=O)N[C@@H](Cc1c[nH]cn1)C(=O)N[C@@H](CCC(N)=O)C(=O)N[C@@H](CC(=O)O)C(=O)N[C@@H](CC(C)C)C(=O)N[C@H](C(N)=O)CSC3) [Ac-(06-34-18) D-Ala4] |  | 7000

Target: T1, human plasma Kallikrein
Assay: enzyme inhibition assay
Remark: another data set of the same source

Binder | Ki [nM]
ACFPKCRVACA (linker 2-6-10 via TBMB, also called PK122) [3A3] | 43.1
ACFDPCRVICA (linker 2-6-10 via TBMB, also called PK124) [3B9] | 90.8
ACFKNCRVNCA (linker 2-6-10 via TBMB, also called PK119) [3B2] | 9
ACFKQCRVNCA (linker 2-6-10 via TBMB, also called PK118) [06-94] | 0.7
ACFNKCRVNCA (linker 2-6-10 via TBMB; not fully specified (N-terminus, C-terminus), also called PK121) [06-64 (3x3 peptide of Table 3)] | 4.8
ACFYKCRVNCA (linker 2-6-10 via TBMB; not fully specified (N-terminus, C-terminus), also called PK120) [06-71] | 15.2

Target: T1, human plasma Kallikrein
Assay: enzyme inhibition assay
Remark: another data set of the same source

Binder | Ki [nM]
Ac-CSWP[NMeA]RCLHQDLC-NH2 (linker 1-7-13 via TBMB; SMILES CC(=O)N[C@H]1CSCc2cc3cc(c2)CSC[C@H](NC(=O)[C@H](CCCNC(=N)N)NC(=O)[C@H](C)N(C)C(=O)[C@@H]2CCCN2C(=O)[C@H](Cc2c[nH]c4ccccc24)NC(=O)[C@H](CO)NC1=O)C(=O)N[C@@H](CC(C)C)C(=O)N[C@@H](Cc1c[nH]cn1)C(=O)N[C@@H](CCC(N)=O)C(=O)N[C@@H](CC(=O)O)C(=O)N[C@@H](CC(C)C)C(=O)N[C@H](C(N)=O)CSC3) [Ac-(06-34-18) NMeAla4] | 343
Ac-CSWPAR[NMeC]LHQDLC-NH2 (linker 1-7-13 via TBMB; SMILES CC(=O)N[C@H]1CSCc2cc3cc(c2)CSC[C@@H](C(=O)N[C@@H](CC(C)C)C(=O)N[C@@H](Cc2c[nH]cn2)C(=O)N[C@@H](CCC(N)=O)C(=O)N[C@@H](CC(=O)O)C(=O)N[C@@H](CC(C)C)C(=O)N[C@H](C(N)=O)CSC3)N(C)C(=O)[C@H](CCCNC(=N)N)NC(=O)[C@H](C)NC(=O)[C@@H]2CCCN2C(=O)[C@H](Cc2c[nH]c3ccccc23)NC(=O)[C@H](CO)NC1=O) [Ac-(06-34-18) NMeCys2] | 418

Target: T1, human plasma Kallikrein
Assay: enzyme inhibition assay
Remark: another data set of the same source

Binder | Ki [nM]
Ac-CSWPA[Agb]CLHQDLC-NH2 (linker 1-7-13 via TBMB; SMILES CC(=O)N[C@H]1CSCc2cc3cc(c2)CSC[C@H](NC(=O)[C@H](CCNC(=N)N)NC(=O)[C@H](C)NC(=O)[C@@H]2CCCN2C(=O)[C@H](Cc2c[nH]c4ccccc24)NC(=O)[C@H](CO)NC1=O)C(=O)N[C@@H](CC(C)C)C(=O)N[C@@H](Cc1c[nH]cn1)C(=O)N[C@@H](CCC(N)=O)C(=O)N[C@@H](CC(=O)O)C(=O)N[C@@H](CC(C)C)C(=O)N[C@H](C(N)=O)CSC3) [Ac-(06-34-18) Agb5] | 83
Ac-CSWPA[β3hR]CLHQDLC-NH2 (linker 1-7-13 via TBMB; SMILES CC(=O)N[C@H]1CSCc2cc3cc(c2)CSC[C@H](NC(=O)C[C@H](CCCNC(=N)N)NC(=O)[C@H](C)NC(=O)[C@@H]2CCCN2C(=O)[C@H](Cc2c[nH]c4ccccc24)NC(=O)[C@H](CO)NC1=O)C(=O)N[C@@H](CC(C)C)C(=O)N[C@@H](Cc1c[nH]cn1)C(=O)N[C@@H](CCC(N)=O)C(=O)N[C@@H](CC(=O)O)C(=O)N[C@@H](CC(C)C)C(=O)N[C@H](C(N)=O)CSC3) [Ac-(06-34-18) βhomoArg5] | 8.2
Ac-CSWPACLHQDLC-NH2 (linker 1-6-12 via TBMB; SMILES CC(=O)N[C@H]1CSCc2cc3cc(c2)CSC[C@H](NC(=O)[C@H](C)NC(=O)[C@@H]2CCCN2C(=O)[C@H](Cc2c[nH]c4ccccc24)NC(=O)[C@H](CO)NC1=O)C(=O)N[C@@H](CC(C)C)C(=O)N[C@@H](Cc1c[nH]cn1)C(=O)N[C@@H](CCC(N)=O)C(=O)N[C@@H](CC(=O)O)C(=O)N[C@@H](CC(C)C)C(=O)N[C@H](C(N)=O)CSC3, Residue ranges derived from the stated deletion of Arg5) [Ac-(06-34-18) Δ Arg5] | > 100000
Ac-CSWPA[Agp]CLHQDLC-NH2 (linker 1-7-13 via TBMB; SMILES CC(=O)N[C@H]1CSCc2cc3cc(c2)CSC[C@H](NC(=O)[C@H](CNC(=N)N)NC(=O)[C@H](C)NC(=O)[C@@H]2CCCN2C(=O)[C@H](Cc2c[nH]c4ccccc24)NC(=O)[C@H](CO)NC1=O)C(=O)N[C@@H](CC(C)C)C(=O)N[C@@H](Cc1c[nH]cn1)C(=O)N[C@@H](CCC(N)=O)C(=O)N[C@@H](CC(=O)O)C(=O)N[C@@H](CC(C)C)C(=O)N[C@H](C(N)=O)CSC3) [Ac-(06-34-18) Agp5] | 1770
Ac-CSWPA[Cit]CLHQDLC-NH2 (linker 1-7-13 via TBMB; SMILES CC(=O)N[C@H]1CSCc2cc3cc(c2)CSC[C@H](NC(=O)[C@H](CCCNC(N)=O)NC(=O)[C@H](C)NC(=O)[C@@H]2CCCN2C(=O)[C@H](Cc2c[nH]c4ccccc24)NC(=O)[C@H](CO)NC1=O)C(=O)N[C@@H](CC(C)C)C(=O)N[C@@H](Cc1c[nH]cn1)C(=O)N[C@@H](CCC(N)=O)C(=O)N[C@@H](CC(=O)O)C(=O)N[C@@H](CC(C)C)C(=O)N[C@H](C(N)=O)CSC3) [Ac-(06-34-18) Cit5] | 7860
